The values below come from patent US20260167959A1, “APTAZYME-BASED REGULATABLE GENE EXPRESSION SYSTEMS” (REJUVENATE BIO INC, priority 2022, published 2026).

Where a chain is given by its changes, count along the chain named.

To fix the notation:
B1: RA389 (nucleic acid)
DNA: GCGCGTCCTGGATTCGCGGAAACGCGTACCGGAATACCAGCATCGTCTTGATGCCCTTGGAAGTCCGATCCAGCTGACGAGTCCCAAATAGGACGAAACGCGC
modifications: expressed or natural sequence
B2: RA408 (nucleic acid)
DNA: GCGCGTCCTGGATTCGCGGAAACGCGGGAATACCAGCATCGTCTTGATGCCCTTGGAAGTCCTACATCCAGCTGACGAGTCCCAAATAGGACGAAACGCGC
modifications: expressed or natural sequence
B3: RA409 (nucleic acid)
DNA: GCGCGTCCTGGATTCGCCGAGAATACCAGCATCGTCTTGATGCCCTTGGAAGTCTCGGGAAACGCGTACATCCAGCTGACGAGTCCCAAATAGGACGAAACGCGC
modifications: expressed or natural sequence
B4: RA411 (nucleic acid)
DNA: GCGCGTCCTGGATTCGCGGAAACGCGTACATCCAGCTGACGAGTCCCAAATAGCGAGAATACCAGCATCGTCTTGATGCCCTTGGAAGTCTCGGACGAAACGCGC
modifications: expressed or natural sequence
B5: RA401 (nucleic acid)
DNA: GCGCGTCCTGGATTCGCGGAAACGCGCGGAATACCAGCATCGTCTTGATGCCCTTGGAAGTCCGTACATCCAGCTGACGAGTCCCAAATAGGACGAAACGCGC
modifications: expressed or natural sequence
B6: RA400 (nucleic acid)
DNA: GCGCGTCCTGGATTCGCGGAACCGGAATACCAGCATCGTCTTGATGCCCTTGGAAGTCCGGACGCGTACATCCAGCTGACGAGTCCCAAATAGGACGAAACGCGC
modifications: expressed or natural sequence
B7: RA403 (nucleic acid)
DNA: GCGCGTCCTCGGAATACCAGCATCGTCTTGATGCCCTTGGAAGTCCGGGATTCGCGGAAACGCGTACATCCAGCTGACGAGTCCCAAATAGGACGAAACGCGC
modifications: expressed or natural sequence
B8: RA392 (nucleic acid)
DNA: GCGCGTCCTGGATTCGCGGACGGAATACCAGCATCGTCTTGATGCCCTTGGAAGTCCGAACGCGTACATCCAGCTGACGAGTCCCAAATAGGACGAAACGCGC
modifications: expressed or natural sequence
B9: RA394 (nucleic acid)
DNA: GCGCGTCCTGGATTCGCAGAATACCAGCATCGTCTTGATGCCCTTGGAAGTCTGGAAACGCGTACATCCAGCTGACGAGTCCCAAATAGGACGAAACGCGC
modifications: expressed or natural sequence
B10: RA407 (nucleic acid)
DNA: GCGCGTCCTGGATTCGCGGAAACGCGTACATCCAGCTGACGAGTCCCAAATAGGACGGAATACCAGCATCGTCTTGATGCCCTTGGAAGTCCGAAACGCGC
modifications: expressed or natural sequence
B11: RA393 (nucleic acid)
DNA: GCGCGTCCTGGATTCGCGGAAACGCGTACATCCAGCTGACGAGTCCCAAATAGGCGGAATACCAGCATCGTCTTGATGCCCTTGGAAGTCCGACGAAACGCGC
modifications: expressed or natural sequence
B12: RA406 (nucleic acid)
DNA: GCGCGTCCTGGATTCGCGGAAACGCGTACATCCAGCTGACGAGTCCCCGGAATACCAGCATCGTCTTGATGCCCTTGGAAGTCCGAAATAGGACGAAACGCGC
modifications: expressed or natural sequence
B13: RA410 (nucleic acid)
DNA: B12 DNA with C48A, G50T, A51G, A79C, T82C, C83A, G85T
modifications: expressed or natural sequence
B14: RA402 (nucleic acid)
DNA: GCGCGTCCTGGATTCGAGAATACCAGCATCGTCTTGATGCCCTTGGAAGTCTCGCGCGGAAACGCGTACATCCAGCTGACGAGTCCCAAATAGGACGAAACGCGC
modifications: expressed or natural sequence
B15: RA391 (nucleic acid)
DNA: GCGCGTCCTGGATTCGCGGAAACGCGTACATCCAGCTGACGAGTCCCAGAGAATACCAGCATCGTCTTGATGCCCTTGGAAGTCTCAATAGGACGAAACGCGC
modifications: expressed or natural sequence
B16: RA405 (nucleic acid)
DNA: GCGCGTCCTGGATTCGCGGAAACGCGTACGAGAATACCAGCATCGTCTTGATGCCCTTGGAAGTCTCGCATCCAGCTGACGAGTCCCAAATAGGACGAAACGCGC
modifications: expressed or natural sequence
B17: RA399 (nucleic acid)
DNA: GCGCGTCCTGGATTCGCGGAAACGCGTACATCCACGAGAATACCAGCATCGTCTTGATGCCCTTGGAAGTCTCGGCTGACGAGTCCCAAATAGGACGAAACGCGC
modifications: expressed or natural sequence
B18: RA397 (nucleic acid)
DNA: GCGCGTCCTGGATTCGCGGAAACGCGTACATCCAGCTGACGAGTCCCAAATAGGACGAAACGCGCCGGAATACCAGCATCGTCTTGATGCCCTTGGAAGTCCG
modifications: expressed or natural sequence
B19: RA388 (nucleic acid)
DNA: GCGCGTCCTGAGTGATACCAGCATCGTCTTGATGCCCTTGGCAGCACTGATTCGCGGAAACGCGTACATCCAGCTGACGAGTCCCAAATAGGACGAAACGCGC
modifications: expressed or natural sequence
B20: RA390 (nucleic acid)
DNA: GCGCGTCCGGAATACCAGCATCGTCTTGATGCCCTTGGAAGTCCGGCCTGGATTCGCGGAAACGCGTACATCCAGCTGACGAGTCCCAAATAGGACGAAACGCGC
modifications: expressed or natural sequence
B21: RA396 (nucleic acid)
DNA: GCGCGTCCTGGATTCGCGGAAACGCGTACATCCAGCTGCGGAATACCAGCATCGTCTTGATGCCCTTGGAAGTCCGACGAGTCCCAAATAGGACGAAACGCGC
modifications: expressed or natural sequence
B22: RA404 (nucleic acid)
DNA: GCGCGTCCTGGATTCGCGGAAGGAATACCAGCATCGTCTTGATGCCCTTGGAAGTCCACGCGTACATCCAGCTGACGAGTCCCAAATAGGACGAAACGCGC
modifications: expressed or natural sequence
B23: RA398 (nucleic acid)
DNA: GCGCGTCCTGGATTCGCGGACGAGAATACCAGCATCGTCTTGATGCCCTTGGAAGTCTCGAACGCGTACATCCAGCTGACGAGTCCCAAATAGGACGAAACGCGC
modifications: expressed or natural sequence
B24: RA395 (nucleic acid)
DNA: GCGCGTCCTGGATTCGCGGAAACGCGTACATCCAGCTGACGAGTCCCAAATAGGAGAATACCAGCATCGTCTTGATGCCCTTGGAAGTCTCGACGAAACGCGC
modifications: expressed or natural sequence
B25: RA040 (nucleic acid)
DNA: GCGCGTCCTGGATTCGCGAGAATACCAGCATCGTCTTGATGCCCTTGGAAGTCTGAAACGCGTACATCCAGCTGACGAGTCCCAAATAGGACGAAACGCGC
modifications: expressed or natural sequence
B26: RA038 (nucleic acid)
DNA: GCGCGTCCTGGATTCGCGGAAACGCGTACATCAGAATACCAGCATCGTCTTGATGCCCTTGGAAGTCTCAGCTGACGAGTCCCAAATAGGACGAAACGCGC
modifications: expressed or natural sequence
B27: RA039 (nucleic acid)
DNA: B26 DNA with A33G, T68C
modifications: expressed or natural sequence

The subject of the first data set is Renilla luciferase RNA. The experiment in a line: Barcoded aptazyme variant library screen: un-cleaved Renilla luciferase RNA by barcode read counts, HEK293-T cells. In kind it is cell-based. As to conditions: un-cleaved Renilla luciferase RNA by barcode read counts; with 1 mM theophylline (ON) over without theophylline (OFF); HEK293-T cells; triplicate. The procedure, abridged: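 Barcode sequencing of cDNA versus DNA, normalized per aptazyme, gave the un-cleaved Renilla luciferase RNA fraction and fold-change with versus without theophylline (triplicates). Library: T3H48 ribozyme with one of seven theophylline aptamer variants inserted at each position, placed in the Renilla 3′ UTR of a dual-luciferase vector.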
In the case of B1, the “Fold change in RNA expression between the ON state and the OFF state” value (“Fold change” below) is on record as 0.8.
For B2, the “Fold change” value is recorded as 0.7.
Consider B3, for which the “Fold change” value was determined as 0.7.
The same measure, in the same setting: next, B4: 0.7; B5: 0.7; B6: 0.7.
Regarding B7, the “Fold change” value came out at 0.7.
With B8, the “Fold change” value turned out to be 0.7.
For the molecule B9, the “Fold change” value is listed as 0.7.
As for B10, the “Fold change” value was found to be 0.7.
In the case of B11, the “Fold change” value is reported as 0.7.
B12: the “Fold change” value amounted to 0.7.
On to B13, for which the “Fold change” value is 0.7.
With B14, the “Fold change” value was determined as 0.7.
Turning to B15, the “Fold change” value was 0.7.
On the same count and under the same terms, to B16 belongs 0.7; to B17, 0.7; to B18, 0.7.
In the case of B19, the “Fold change” value is recorded as 0.8.
As to B20, the “Fold change” value is given as 0.7.
As for B21, the “Fold change” value is 0.7.
Consider B22, for which the “Fold change” value was 0.7.
For the molecule B23, the “Fold change” value was 0.7.
For the molecule B24, the “Fold change” value is reported as 0.7.

The same data set, now with this note: un-cleaved Renilla luciferase RNA, HEK293-T cells cultured with 1 mM theophylline (ON) over without theophylline (OFF); barcode read counts, triplicate.
For B25, the “Fold change” value was 2.1 fold.
For B26, the “Fold change” value was determined as 2.2 fold.
With B27, the “Fold change” value turned out to be 2.2 fold.
